Assay results as given in patent publication US20220348651A1, “ENTPD2 ANTIBODIES, COMBINATION THERAPIES, AND METHODS OF USING THE ANTIBODIES AND COMBINATION THERAPIES” (Novartis AG, priority 2019, published 2022).

Tests used:
RKO cells = target: T1, RKO cells (Homo sapiens, UniProt Q9Y5L3); experiment: FACS binding to RKO cells with endogenous ENTPD2; settings: read-out: Apparent FACS Affinity
T1 construct: colorectal cancer cells with endogenous ENTPD2 expression; host or cells: RKO
T1 sequence (Q9Y5L3 1-495): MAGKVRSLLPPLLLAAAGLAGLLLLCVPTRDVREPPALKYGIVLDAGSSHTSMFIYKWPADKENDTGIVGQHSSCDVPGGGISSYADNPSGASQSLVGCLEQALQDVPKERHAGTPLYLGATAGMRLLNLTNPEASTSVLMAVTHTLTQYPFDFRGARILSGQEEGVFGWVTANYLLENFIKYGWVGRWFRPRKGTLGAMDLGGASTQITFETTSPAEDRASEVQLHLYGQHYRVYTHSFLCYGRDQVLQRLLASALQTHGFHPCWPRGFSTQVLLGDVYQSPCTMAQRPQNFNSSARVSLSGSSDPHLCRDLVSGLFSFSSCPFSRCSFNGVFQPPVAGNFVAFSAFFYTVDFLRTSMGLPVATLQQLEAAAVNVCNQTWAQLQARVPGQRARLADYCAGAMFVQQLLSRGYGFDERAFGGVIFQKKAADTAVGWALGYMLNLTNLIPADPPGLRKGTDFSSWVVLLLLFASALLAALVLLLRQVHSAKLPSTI
Protocol: (§1) FACS screening: Specific binding of candidate antibodies to endogenously expressed ENTPD2 was assessed by flow cytometry. Cells were rinsed thoroughly with 1×PBS and treated with Accutase (Millipore #SCR005) to lift from growth plates and resuspended at approximately 1×10^5 cells/90 μL in 1× FACS buffer (2% FBS+0.1% NaN3 in PBS). In a 96-well U-bottom plate, 10 μL of 10× antibody solution in FACS buffer was pre-seeded and 90 μL of cell suspension was added. Cell were incubated for 30 minutes at 4° C., washed 1× with cold PBS and resuspended in 100 μL of 1:500 secondary antibody 1× FACS buffer (Allophycocyanin conjugated F(ab′)2 goat anti-human IgG, Fcγ specific; Jackson Immunoresearch, Cat#109-136-098). After additional incubation for 15 min at 4° C., cells were washed twice with PBS and resuspended in 100 μL of 1×FACS buffer with 4 μg/mL propidium iodide (Life Technologies, Cat#P3566). Geometric mean fluorescence intensity was calculated on live single cells using FlowJo software.

H520 cells = experiment: Cross reactivity: FACS binding to H520 cells (ENTPD3 and ENTPD8 expression); set-up: species or system human; settings: 50 nM antibody
Protocol: as §1
H520 cells were identified as a cancer cell line with ENTPD3 (Ct 25) and ENTPD8 (Ct 26) expression by Taqman and were used for selectivity screening.

human ENTPD2 = target: T2, human ENTPD2 (Homo sapiens, UniProt Q9Y5L3); experiment: Biacore (SPR) affinity to human ENTPD2 ECD; assay type: binding; settings: 25° C.
T2 construct: residues 29-462 of human or cyno ENTPD2 were cloned into expression vector; GP67 signal peptide (N); made in house; host or cells: High Five (Trichoplusia ni) insect cells, baculovirus
T2 sequence (Q9Y5L3 29-462): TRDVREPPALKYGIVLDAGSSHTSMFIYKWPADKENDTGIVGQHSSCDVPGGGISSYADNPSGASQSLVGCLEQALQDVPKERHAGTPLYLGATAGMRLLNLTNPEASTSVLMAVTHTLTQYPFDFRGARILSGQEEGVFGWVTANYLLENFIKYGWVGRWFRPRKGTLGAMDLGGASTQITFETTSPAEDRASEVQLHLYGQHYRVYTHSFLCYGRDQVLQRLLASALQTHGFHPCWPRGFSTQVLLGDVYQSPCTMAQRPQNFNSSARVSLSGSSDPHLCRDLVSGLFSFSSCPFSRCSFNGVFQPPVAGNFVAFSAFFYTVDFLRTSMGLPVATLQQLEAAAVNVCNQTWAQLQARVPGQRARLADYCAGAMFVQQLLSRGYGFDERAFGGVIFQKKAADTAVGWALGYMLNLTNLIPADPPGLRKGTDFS
Protocol: Biacore Screening: Affinity was measured by determining the kinetic rate constants using surface plasmon resonance (SPR) on a Biacore T200 or T100 with the T200 sensitivity upgrade instrument (Biacore, GE Healthcare). Antibodies were captured on CM5 sensor chips (Biacore, GE Healthcare) prepared with a mouse anti-human IgG Fc antibody (ThermoFisher catalogue #05-4200) amine coupled to the surface. […] ENTPD2 analytes were allowed to associate for 180 s and dissociate for up to 1800 s depending on the off-rate of the antibody at a flow rate of 30 μL/min. The running buffer was PBS pH 7.2 (prepared from a Corning 10X stock, cat#46-013-CM)+0.05% Tween 20. Regeneration was accomplished with 30 s injections of 3 or 4 M MgCl2 to remove all the captured antibody and remaining complex from the surface, after which fresh antibody was captured. The raw data were analyzed using Biacore T200 Evaluation Software version 1.0 and fit to a 1:1 binding model, with all parameters set to fit globally except for RI, which was set to fit locally.

EC50 (RKO cells): 0.4 nM
Kd (human ENTPD2): 0.9 nM
ka (human ENTPD2): 210000 M⁻¹ s⁻¹
kd (human ENTPD2): 0.00019 s⁻¹
B1: mAb7: humanized anti-human ENTPD2 antibody from mAb17; VH SEQ ID NO: 25, VL SEQ ID NO: 78 (antibody, V domains shown)
VH: QVQLVQSGAEVVKPGASVKISCKASGYTFTDYNMDWVKQAPGQRLEWIGDINPKYDISTYNQQFKGKATITVDKSASTAYMELSSLRSEDTAVYYCARRGFFLYYGINYYYFDVWGQGTLVTVSS
VL: EIVLTQSPATLSASPGEEITLSCSASSSVSYIHWYQQKPGQAPRLLIYSTSNLASGIPARFSGSGSGTFYTLTISSVEPEDAAVYYCHQWSSYPWTFGGGTKLEIK
Apparent FACS binding at 50 nM (H520 cells): No binding
